Paper PMC5340008 (BMC Biochemistry, 2017)

Target: Bacillus anthracis Bla1 β-lactamase (Bacillus anthracis)

Chain of BLIP [change] (P35804 37-201 Y86A): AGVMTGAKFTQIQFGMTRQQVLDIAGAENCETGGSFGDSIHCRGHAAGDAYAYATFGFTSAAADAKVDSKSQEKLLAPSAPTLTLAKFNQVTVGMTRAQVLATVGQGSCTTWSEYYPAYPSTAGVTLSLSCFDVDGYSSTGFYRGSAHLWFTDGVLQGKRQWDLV

BLIP [change] (from UniProt P35804 37-201) (natural protein)
Ki: 1.2 nM
